B1: PB-1: mouse monoclonal antibody raised against A-peak-BSA; heavy-chain variable region SEQ ID NO 18, light-chain variable region SEQ ID NO 22 (antibody, listed as Mus musculus, V domains shown)
VH: EVRLQQSGPELVKPGTSVKISCKASGYSFTGYYMHWVKQSPVKSLEWIGRIIPYNGATSYNQNFKDKASLTVDKSSRTAYMDLHSLTSEDSAVYYCARSRYYGRAPYYFDYWGQGTTLTVSS
VL: DVVVTQTPLSLPVSLGDQASISCRSSQSIVHSNGNTYLEWYLQKPGQSPKLLIYKVSNRFSGVPDRISGSGSGTDFTLKISRVEAGDLGVYSCFQGSHVPFTFGSGTKLEIK
B2: SJ-5: mouse monoclonal antibody raised against GAL13-MSA; heavy-chain variable region SEQ ID NO 4, light-chain variable region SEQ ID NO 8 (antibody, listed as Mus musculus, V domains shown)
VH: EVMLVESGGRLVKPGGSLKLSCAASGFTFSSYGMSWVRQTPEKRLEWVATISGGGSYTYYPDSVKGRFTISRDNVKNNLYLQMSSLRSEDTALYYCARRGAYGDYGWFAYWGQGTLVTVSA
VL: DIVLTQSPATLSVTPGDSVSLSCRASQSINNNLHWYQQKSHESPRLLIKCASQSISGIPSRFSGSGSGTDFTLSINSVETEDFGMYFCQQSNSWPLTFGAGTKLELK

Assays:
Type in all cases: binding
GO-AGEs-BSA = GO-AGEs-BSA (Bos taurus, UniProt P02769); experiment: Specificity of PB-1 by competitive ELISA (Example 30); conditions: A-peak-BSA or Glycer-AGEs-BSA immobilized, competitor 10 μg/mL, PB-1 0.05 μg/mL
GO-AGEs-BSA, sequence (P02769 25-607): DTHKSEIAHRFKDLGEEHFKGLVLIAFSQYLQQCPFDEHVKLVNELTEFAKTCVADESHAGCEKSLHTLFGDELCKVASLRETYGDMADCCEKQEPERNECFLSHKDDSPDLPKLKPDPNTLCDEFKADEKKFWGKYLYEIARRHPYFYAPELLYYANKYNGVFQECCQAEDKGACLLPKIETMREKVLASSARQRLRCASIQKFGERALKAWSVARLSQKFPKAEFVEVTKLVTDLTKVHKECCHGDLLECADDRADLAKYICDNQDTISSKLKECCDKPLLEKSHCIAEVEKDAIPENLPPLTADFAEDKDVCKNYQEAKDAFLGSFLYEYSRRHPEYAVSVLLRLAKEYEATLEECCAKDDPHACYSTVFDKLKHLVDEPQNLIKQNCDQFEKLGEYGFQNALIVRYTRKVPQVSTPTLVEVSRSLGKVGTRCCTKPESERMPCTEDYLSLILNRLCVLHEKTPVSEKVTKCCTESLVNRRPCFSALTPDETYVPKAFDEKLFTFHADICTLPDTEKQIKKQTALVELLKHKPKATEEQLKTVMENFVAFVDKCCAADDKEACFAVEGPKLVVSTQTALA
Experimental: (§1) A-peak-BSA or Glycer-AGEs-BSA prepared into a concentration of 1 μg/mL with a coating solution (Example 13) was added at 100 μL/well to a 96-well microtiter plate (Costar) and immobilized overnight at 4° C.
(§2) The plate was washed three times with PBS containing 0.05% (v/v) Tween 20 (PBS-T) and then blocked with PBS-T containing 0.5% (w/v) gelatin for 1 hour.
(§3) Bovine serum albumin (BSA), BSA containing AGEs derived from glucose (Glu-AGEs-BSA), BSA containing AGEs derived from fructose (Fru-AGEs-BSA), BSA containing AGEs derived from glycolaldehyde (Glycol-AGEs-BSA), BSA containing AGEs derived from glyceraldehyde (Glycer-AGEs-BSA), BSA containing NE-carboxyethyllysine (CEL-AGEs-BSA), BSA containing NE-carboxymethyllysine (CML-AGEs-BSA), BSA containing AGEs derived from glyoxal (GO-AGEs-BSA), BSA containing AGEs derived from methylglyoxal (MGO-AGEs-BSA), and A-peak-BSA diluted into 10 μg/mL with PBS-T containing 0.1% (w/v) gelatin were each added at 50 μL/well to the antigen-immobilized plate, and the PB-1 antibody diluted into 0.05 μg/mL with PBS-T containing 0.1% (w/v) gelatin was further added at 50 μL/well, stirred with a plate mixer, and then left standing at room temperature for 1 hour.
(§4) After washing, peroxidase-labeled anti-mouse IgG (H+L) polyclonal antibody, F(ab′)2 fragment (Kirkegaard & Perry Laboratories, Inc.) diluted into 0.05 μg/mL with PBS-T containing 0.1% (w/v) gelatin was added at 100 μL/well and left standing at room temperature for 1 hour.
(§5) After washing, ELISA POD substrate TMB kit (Nacalai Tesque, Inc.) was added at 100 μL/well and left standing at room temperature in the dark. Ten minutes later, color development was terminated by the addition of 2 N sulfuric acid (50 μL/well). Absorbance was measured at a dominant wavelength of 450 nm and a sub-wavelength of 650 nm with a microplate reader (Cytation 5, BioTek Instrument Inc.), and the absorbance at the sub-wavelength was subtracted from the absorbance at the dominant wavelength.
(§6) The ordinate of the graph depicts change in absorbance relative to that of control BSA defined as 1. When A-peak-BSA and Glycer-AGEs-BSA were immobilized, the novel monoclonal antibody PB-1 was also positive to Glycol-AGEs-BSA, Glycer-AGEs-BSA, and A-peak-BSA and negative to Glu-AGEs-BSA, Fru-AGEs-BSA, CEL-AGEs-BSA, CML-AGEs-BSA, GO-AGEs-BSA, and MGO-AGEs-BSA in terms of specificity.

Glu-AGEs-BSA = Glu-AGEs-BSA (Bos taurus, UniProt P02769); experiment: as above; conditions: A-peak-BSA or Glycer-AGEs-BSA immobilized, competitor 10 μg/mL, PB-1 0.05 μg/mL
Glu-AGEs-BSA, sequence (P02769 25-607): as above
Experimental: as §1, §2, §3, §4, §5, §6

A-peak-BSA = A-peak-BSA (Bos taurus, UniProt P02769); experiment: as above; conditions: A-peak-BSA or Glycer-AGEs-BSA immobilized, competitor 10 μg/mL, PB-1 0.05 μg/mL
A-peak-BSA, sequence (P02769 25-607): as above
Experimental: as §1, §2, §3, §4, §5, §6

CML-AGEs-BSA = CML-AGEs-BSA (Bos taurus, UniProt P02769); experiment: as above; conditions: A-peak-BSA or Glycer-AGEs-BSA immobilized, competitor 10 μg/mL, PB-1 0.05 μg/mL
CML-AGEs-BSA, sequence (P02769 25-607): as above
Experimental: as §1, §2, §3, §4, §5, §6

CEL-AGEs-BSA = CEL-AGEs-BSA (Bos taurus, UniProt P02769); experiment: as above; conditions: A-peak-BSA or Glycer-AGEs-BSA immobilized, competitor 10 μg/mL, PB-1 0.05 μg/mL
CEL-AGEs-BSA, sequence (P02769 25-607): as above
Experimental: as §1, §2, §3, §4, §5, §6

MGO-AGEs-BSA = MGO-AGEs-BSA (Bos taurus, UniProt P02769); experiment: as above; conditions: A-peak-BSA or Glycer-AGEs-BSA immobilized, competitor 10 μg/mL, PB-1 0.05 μg/mL
MGO-AGEs-BSA, sequence (P02769 25-607): as above
Experimental: as §1, §2, §3, §4, §5, §6

Glycol-AGEs-BSA = Glycol-AGEs-BSA (Bos taurus, UniProt P02769); experiment: as above; conditions: A-peak-BSA or Glycer-AGEs-BSA immobilized, competitor 10 μg/mL, PB-1 0.05 μg/mL
Glycol-AGEs-BSA, sequence (P02769 25-607): as above
Experimental: as §1, §2, §3, §4, §5, §6

GAL13-BSA = biological target: T1, GAL13-BSA (Bos taurus, UniProt P02769); experiment: Reactivity of novel monoclonal antibody by direct ELISA (Example 5); conditions: immobilized GAL13-BSA 1 μg/mL, POD-labeled antibody dilution series from 4 μg/mL
T1 construct: purchased Sigma-Aldrich Co. LLC
T1 sequence (P02769 25-607): as above
Experimental: BSA modified with the novel structure derived from Glycer-AGEs (GAL13-BSA) was added at 100 μL/well with a concentration of 1 μg/mL and immobilized overnight at 4° C. The plate was washed three times with PBS containing 0.05% (v/v) Tween 20 (PBS-T) and then blocked with PBS-T containing 0.5% (w/v) gelatin for 1 hour. The POD-labeled novel monoclonal antibody SJ-5 prepared in Example 4 and the anti-glyceraldehyde-derived AGEs polyclonal antibody as a control were serially diluted into 4-fold dilutions from 4 μg/mL to 0.06254 μg/mL to prepare dilution series, which were then added at 100 μL/well to the antigen-immobilized plate and left standing for 1 hour. After washing, an o-phenylenediamine solution (100 μL) prepared into 0.5 mg/mL with a 0.1 M citrate-phosphate buffer solution (pH 5.0) containing 0.02% (w/v) hydrogen peroxide was added to each well and left standing at 25° C. for 10 minutes. Then, color reaction was terminated by the addition of a 1 M sulfuric acid solution (50 μL) to each well. Then, absorbance at 490 nm was measured with a microplate reader.

[1] = Reactivity of SJ-5 with GLAP by competitive ELISA (Example 13); conditions: immobilized Glycer-AGEs-BSA
Experimental: A solution of BSA containing AGEs derived from glyceraldehyde (stock solution: 10 mg/mL PBS solution) prepared into 1 μg/mL in a coating solution was added at 100 μL/well to a 96-well microtiter plate (COSTAR) and incubated overnight at 4° C.
Each well after the immobilization treatment was washed three times with a washing solution (300 μL), and a blocking solution (200 μL) was added thereto and left at room temperature for 1 hour.
GAL13 (prepared in Example 2), GLAP (prepared in Example 12), and Z-Lys-OH (Tokyo Chemical Industry Co., Ltd.) were each dissolved in a phosphate buffer solution (0.2 M, pH 7.4) to prepare a 20 mg/mL solution. Sample solutions of 2-fold dilution series from 0.0063 to 2 mg/mL (6 points) were further prepared by dilution with a diluting solution. A POD-labeled novel monoclonal antibody (SJ-5) solution was diluted 16,000-fold with a diluting solution containing BSA (1 mg/mL, FUJIFILM Wako Pure Chemical Corp.) to prepare a POD-labeled SJ-5 antibody dilution solution. […]
Absorbance was measured at a dominant wavelength of 450 nm and a sub-wavelength of 650 nm with a microplate reader (Cytation 5, BioTek Instrument Inc.), and the absorbance at the sub-wavelength was subtracted from the absorbance at the dominant wavelength.

Molecule	specificity: reactivity with GO-AGEs-BSA (GO-AGEs-BSA)	specificity: reactivity with Glu-AGEs-BSA (Glu-AGEs-BSA)	specificity: reactivity with A-peak-BSA (A-peak-BSA)	specificity: reactivity with CML-AGEs-BSA (CML-AGEs-BSA)	specificity: reactivity with CEL-AGEs-BSA (CEL-AGEs-BSA)	specificity: reactivity with MGO-AGEs-BSA (MGO-AGEs-BSA)	specificity: reactivity with Glycol-AGEs-BSA (Glycol-AGEs-BSA)	reactivity with GAL13-BSA (absorbance at 490 nm) (GAL13-BSA)	recognition of GLAP [1]
B1	negative	negative	positive	negative	negative	negative	positive	–	–
B2	–	–	–	–	–	–	–	react favorably	does not recognize
